Experiments:
[1] = HA-Ub, MG132, IP and immunoblot, NP cells
[2] = actinomycin D chase, RT-qPCR; conditions: glycan lost; control: shYTHDF2 + Flag-YTHDF2 WT
[3] = cycloheximide chase, immunoblot, NP cells
[4] = in vitro ubiquitination with His-OGT and UDP-GlcNAc; conditions: glycan lost; control: purified Flag-YTHDF2 WT
[5] = nuclear/cytoplasmic fractionation and immunofluorescence
[6] = immunoblot, with or without MG132, CQ, BafA1; conditions: glycan lost; control: untreated
[7] = IHC and Western blot of disc tissue; conditions: glycan gained; control: IDD mice given saline
[8] = immunoblot of endogenous YTHDF2, NP cells; conditions: glycan gained; control: H2O2 alone
[9] = glycan lost, control: Flag-YTHDF2 WT
[10] = glycan gained, control: untreated Flag-YTHDF2 WT

B1: YTHDF2: S263A (protein)
parent chain: MSASSLLEQRPKGQGNKVQNGSVHQKDGLNDDDFEPYLSPQARPNNAYTAMSDSYLPSYYSPSIGFSYSLGEAAWSTGGDTAMPYLTSYGQLSNGEPHFLPDAMFGQPGALGSTPFLGQHGFNFFPSGIDFSAWGNNSSQGQSTQSSGYSSNYAYAPSSLGGAMIDGQSAFANETLNKAPGMNTIDQGMAALKLGSTEVASSVPKVVGSAVGSGSITSNIVASSSLPPATIAPPKPASWADIASKPAKQQPKLKTKNGIAGSSLPPPPIKHNMDIGTWDNKGPVAKAPSQALVQNIGQPTQGSPQPVGQQANNSPPVAQASVGQQTQPLPPPPPQPAQLSVQQQAAQPTRWVAPRNRGSGFGHNGVDGNGVGQSQAGSGSTPSEPHPVLEKLRSINNYNPKDFDWNLKHGRVFIIKSYSEDDIHRSIKYNIWCSTEHGNKRLDAAYRSMNGKGPVYLLFSVNGSGHFCGVAEMKSAVDYNTCAGVWSQDKWKGRFDVRWIFVKDVPNSQLRHIRLENNENKPVTNSRDTQEVPLEKAKQVLKIIASYKHTTSIFDDFSHYEKRQEEEESVKKERQGRGK
With B1 the “other: ubiquitination” value [1, 9] was “increases”, the “other: target mRNA stability” value [2] was “decreases” and the degradation_or_half_life [3, 9] was “decreases”. The “other: ubiquitination” value [4] was “increases” and the localisation_or_trafficking [5, 9] was “no change”.

B2: YTHDF2: OSMI-1 (protein)
parent chain: MSASSLLEQRPKGQGNKVQNGSVHQKDGLNDDDFEPYLSPQARPNNAYTAMSDSYLPSYYSPSIGFSYSLGEAAWSTGGDTAMPYLTSYGQLSNGEPHFLPDAMFGQPGALGSTPFLGQHGFNFFPSGIDFSAWGNNSSQGQSTQSSGYSSNYAYAPSSLGGAMIDGQSAFANETLNKAPGMNTIDQGMAALKLGSTEVASSVPKVVGSAVGSGSITSNIVASSSLPPATIAPPKPASWADIASKPAKQQPKLKTKNGIAGSSLPPPPIKHNMDIGTWDNKGPVAKAPSQALVQNIGQPTQGSPQPVGQQANNSPPVAQASVGQQTQPLPPPPPQPAQLSVQQQAAQPTRWVAPRNRGSGFGHNGVDGNGVGQSQAGSGSTPSEPHPVLEKLRSINNYNPKDFDWNLKHGRVFIIKSYSEDDIHRSIKYNIWCSTEHGNKRLDAAYRSMNGKGPVYLLFSVNGSGHFCGVAEMKSAVDYNTCAGVWSQDKWKGRFDVRWIFVKDVPNSQLRHIRLENNENKPVTNSRDTQEVPLEKAKQVLKIIASYKHTTSIFDDFSHYEKRQEEEESVKKERQGRGK
For B2, the localisation_or_trafficking ([5]; glycan lost, control: untreated) was “no change” and the expression_or_secretion [6] was “decreases”.

B3: YTHDF2: TMG (protein)
parent chain: MSASSLLEQRPKGQGNKVQNGSVHQKDGLNDDDFEPYLSPQARPNNAYTAMSDSYLPSYYSPSIGFSYSLGEAAWSTGGDTAMPYLTSYGQLSNGEPHFLPDAMFGQPGALGSTPFLGQHGFNFFPSGIDFSAWGNNSSQGQSTQSSGYSSNYAYAPSSLGGAMIDGQSAFANETLNKAPGMNTIDQGMAALKLGSTEVASSVPKVVGSAVGSGSITSNIVASSSLPPATIAPPKPASWADIASKPAKQQPKLKTKNGIAGSSLPPPPIKHNMDIGTWDNKGPVAKAPSQALVQNIGQPTQGSPQPVGQQANNSPPVAQASVGQQTQPLPPPPPQPAQLSVQQQAAQPTRWVAPRNRGSGFGHNGVDGNGVGQSQAGSGSTPSEPHPVLEKLRSINNYNPKDFDWNLKHGRVFIIKSYSEDDIHRSIKYNIWCSTEHGNKRLDAAYRSMNGKGPVYLLFSVNGSGHFCGVAEMKSAVDYNTCAGVWSQDKWKGRFDVRWIFVKDVPNSQLRHIRLENNENKPVTNSRDTQEVPLEKAKQVLKIIASYKHTTSIFDDFSHYEKRQEEEESVKKERQGRGK
For B3, the “other: ubiquitination” value [1, 10] was “changes”, the expression_or_secretion [7] was “increases” and the degradation_or_half_life [3, 10] was “increases”. For the same protein, the expression_or_secretion [8] was “increases” and the localisation_or_trafficking ([5]; glycan gained, control: untreated) was “no change”.
